In patent publication US10239925B2, “Peptides and combination of peptides for use in immunotherapy against ovarian cancer and other cancers” (IMMATICS BIOTECHNOLOGIES GMBH, priority 2015, dated 2019):

Target: HLA-A*02:01 (Homo sapiens, UniProt P04439, D140Y/D185E/D98H/E176V/E277Q/G131W/G231S/I119V/I121R/I166T/I218V/L300P/L318F/N151K/N90K/P208A/P217A/Q86G/Q94H/R138H/R169H/T345S)
Assay: MHC binding assay (UV-ligand exchange, anti-β2m ELISA, peptide exchange yield)
Conditions: binding to HLA-A*02:01
From the text: Candidate peptides for T cell based therapies according to the present invention were further tested for their MHC binding capacity (affinity). The individual peptide-MHC complexes were produced by UV-ligand exchange, where a UV-sensitive peptide is cleaved upon UV-irradiation, and exchanged with the peptide of interest as analyzed. Only peptide candidates that can effectively bind and stabilize the peptide-receptive MHC molecules prevent dissociation of the MHC complexes. To determine the yield of the exchange reaction, an ELISA was performed based on the detection of the light chain (β2m) of stabilized MHC complexes. The assay was performed as generally described in Rodenko et al. (Rodenko et al., 2006).
96 well MAXISorp plates (NUNC) were coated over night with 2 ug/ml streptavidin in PBS at room temperature, washed 4× and blocked for 1h at 37° C. in 2% BSA containing blocking buffer. […] Peptide-MHC monomers of the UV-exchange reaction were diluted 100 fold in blocking buffer. Samples were incubated for 1 h at 37° C., washed four times, incubated with 2 ug/ml HRP conjugated anti-β2m for 1h at 37° C., washed again and detected with TMB solution that is stopped with […]. Absorption was measured at 450 nm. Candidate peptides that show a high exchange yield (preferably higher than 50%, most preferred higher than 75%) are generally preferred for a generation and production of antibodies or fragments thereof, and/or T cell receptors or fragments thereof, as they show sufficient avidity to the MHC molecules and prevent dissociation of the MHC complexes.

Row | Peptide exchange (MHC class I binding score, peptide exchange yield) | Substance
1 | “+++” (>50 = +++) | 248 (FLFPNQYVDV; listed as Homo sapiens) [compound 248]
2 | “+++” (>50 = +++) | 95 (SVIPQIQKV; listed as Homo sapiens) [compound 95]
3 | “+++” (>50 = +++) | 69 (FQLDPSSGVLVTV; listed as Homo sapiens) [compound 69]
4 | “+++” (>50 = +++) | 59 (IMEDIILTL; listed as Homo sapiens) [compound 59]
5 | “++” (>20% = ++) | 574 (YLLQEPPRTV; listed as Homo sapiens) [compound 574]
6 | “+++” (>50 = +++) | 83 (ILAPTVMMI; listed as Homo sapiens) [compound 83]
7 | “+++” (>50 = +++) | 616 (VLIDEVESL; listed as Homo sapiens) [compound 616]
8 | “+++” (>50 = +++) | 239 (AAFAGKLLSV; listed as Homo sapiens) [compound 239]
9 | “++” (>20% = ++) | 559 (VTVPPGPSL; listed as Homo sapiens) [compound 559]
10 | “+++” (>50 = +++) | 550 (FLYDEIEAEVNL; listed as Homo sapiens) [compound 550]
11 | “+++” (>50 = +++) | 25 (FLPDEPYIKV; listed as Homo sapiens) [compound 25]
12 | “++” (>20% = ++) | 211 (LLWPGAALL; listed as Homo sapiens) [compound 211]
13 | “++” (>20% = ++) | 377 (FLLDSSASV; listed as Homo sapiens) [compound 377]
14 | “+++” (>50 = +++) | 506 (KLLGKVETA; listed as Homo sapiens) [compound 506]
15 | “+++” (>50 = +++) | 610 (LLAPTPYIIGV; listed as Homo sapiens) [compound 610]
16 | “++” (>20% = ++) | 353 (YLFEMDSSL; listed as Homo sapiens) [compound 353]
17 | “+++” (>50 = +++) | 97 (SLINGSFLV; listed as Homo sapiens) [compound 97]
18 | “++” (>20% = ++) | 318 (GLINTGVLSV; listed as Homo sapiens) [compound 318]
19 | “+++” (>50 = +++) | 529 (LLADELITV; listed as Homo sapiens) [compound 529]

Row | Peptide exchange (MHC class I binding score, peptide exchange yield) | Substance
20 | “+++” (>50 = +++) | 496 (FLVEKQPPQV; listed as Homo sapiens) [compound 496]
21 | “++” (>20% = ++) | 522 (TLWYRSPEV; listed as Homo sapiens) [compound 522]
22 | “+++” (>50 = +++) | 457 (SLLPGNLVEKV; listed as Homo sapiens) [compound 457]
23 | “+++” (>50 = +++) | 352 (SLLELLHIYV; listed as Homo sapiens) [compound 352]
24 | “+++” (>50 = +++) | 564 (TVTNAVVTV; listed as Homo sapiens) [compound 564]
25 | “+++” (>50 = +++) | 488 (FLAEDPKVTL; listed as Homo sapiens) [compound 488]
26 | “+++” (>50 = +++) | 484 (SLIEKVTQL; listed as Homo sapiens) [compound 484]
27 | “+++” (>50 = +++) | 170 (RLQETLSAA; listed as Homo sapiens) [compound 170]
28 | “+++” (>50 = +++) | 578 (FLDPGGPMMKL; listed as Homo sapiens) [compound 578]
29 | “+++” (>50 = +++) | 272 (ALGNTVPAV; listed as Homo sapiens) [compound 272]
30 | “+++” (>50 = +++) | 480 (ALLEDSCHYL; listed as Homo sapiens) [compound 480]
31 | “++++” (>75% = ++++) | 387 (ALFQATAEV; listed as Homo sapiens) [compound 387]
32 | “+++” (>50 = +++) | 12 (SLWPDPMEV; listed as Homo sapiens) [compound 12]
33 | “+++” (>50 = +++) | 314 (ALIAEGIALV; listed as Homo sapiens) [compound 314]
34 | “+++” (>50 = +++) | 162 (YQQAQVPSV; listed as Homo sapiens) [compound 162]
35 | “++” (>20% = ++) | 92 (YLIPFTGIVGL; listed as Homo sapiens) [compound 92]
36 | “++” (>20% = ++) | 451 (LLLLDTVTMQV; listed as Homo sapiens) [compound 451]
37 | “+++” (>50 = +++) | 456 (LLIGHLERV; listed as Homo sapiens) [compound 456]
38 | “+++” (>50 = +++) | 298 (VMITKLVEV; listed as Homo sapiens) [compound 298]

Row | Peptide exchange (MHC class I binding score, peptide exchange yield) | Substance
39 | “++” (>20% = ++) | 31 (YLAPELFVNV; listed as Homo sapiens) [compound 31]
40 | “+++” (>50 = +++) | 541 (SMLEPVPEL; listed as Homo sapiens) [compound 541]
41 | “+++” (>50 = +++) | 477 (ALLPASGQIAL; listed as Homo sapiens) [compound 477]
42 | “+++” (>50 = +++) | 29 (KMLGIPISNILMV; listed as Homo sapiens) [compound 29]
43 | “+++” (>50 = +++) | 313 (VLFDDELLMV; listed as Homo sapiens) [compound 313]
44 | “+++” (>50 = +++) | 509 (FLFDTKPLIV; listed as Homo sapiens) [compound 509]
45 | “++” (>20% = ++) | 580 (LLMENAERV; listed as Homo sapiens) [compound 580]
46 | “+++” (>50 = +++) | 129 (GLLDGGVDILL; listed as Homo sapiens) [compound 129]
47 | “+++” (>50 = +++) | 442 (GLLGGGGVLGV; listed as Homo sapiens) [compound 442]
48 | “++” (>20% = ++) | 428 (KLGHTDILVGV; listed as Homo sapiens) [compound 428]
49 | “+++” (>50 = +++) | 606 (ALWETEVYI; listed as Homo sapiens) [compound 606]
50 | “+++” (>50 = +++) | 183 (FGLDLVTEL; listed as Homo sapiens) [compound 183]
51 | “+++” (>50 = +++) | 96 (YIFTDNPAAV; listed as Homo sapiens) [compound 96]
52 | “+++” (>50 = +++) | 322 (TLMTSLPAL; listed as Homo sapiens) [compound 322]
53 | “+++” (>50 = +++) | 263 (LLVSNLDFGV; listed as Homo sapiens) [compound 263]
54 | “++” (>20% = ++) | 154 (ALDDGTPAL; listed as Homo sapiens) [compound 154]
55 | “+++” (>50 = +++) | 608 (SLLSVSHAL; listed as Homo sapiens) [compound 608]
56 | “+++” (>50 = +++) | 192 (KMLDGASFTL; listed as Homo sapiens) [compound 192]
